Data: patent publication US20240417426A1

Columns and labels:
[1] = molecular target: column ligand of the FLAG-Tag system (Prot)
[2] = molecular target: column ligand of the Strep-Tag system (Prot)

| Capacity [1] | Kd [1] | Capacity [2] | Kd [2] | Substance |
| --- | --- | --- | --- | --- |
| 0.6 mg/mL | 1 nM |  |  | FLAG-Tag (peptide) |
|  |  | 6 mg/mL | 1000 nM | Strep-Tag (peptide) |
